The target of assay [1] is T1, cell membranes isolated from rat intestinal tissues (Rattus norvegicus, UniProt P23897).
T1 construct: cell membranes isolated from T84 cells and from rat intestinal tissues; from tissue; host or cells: rat intestinal tissue membranes
T1 sequence (P23897 23-1072): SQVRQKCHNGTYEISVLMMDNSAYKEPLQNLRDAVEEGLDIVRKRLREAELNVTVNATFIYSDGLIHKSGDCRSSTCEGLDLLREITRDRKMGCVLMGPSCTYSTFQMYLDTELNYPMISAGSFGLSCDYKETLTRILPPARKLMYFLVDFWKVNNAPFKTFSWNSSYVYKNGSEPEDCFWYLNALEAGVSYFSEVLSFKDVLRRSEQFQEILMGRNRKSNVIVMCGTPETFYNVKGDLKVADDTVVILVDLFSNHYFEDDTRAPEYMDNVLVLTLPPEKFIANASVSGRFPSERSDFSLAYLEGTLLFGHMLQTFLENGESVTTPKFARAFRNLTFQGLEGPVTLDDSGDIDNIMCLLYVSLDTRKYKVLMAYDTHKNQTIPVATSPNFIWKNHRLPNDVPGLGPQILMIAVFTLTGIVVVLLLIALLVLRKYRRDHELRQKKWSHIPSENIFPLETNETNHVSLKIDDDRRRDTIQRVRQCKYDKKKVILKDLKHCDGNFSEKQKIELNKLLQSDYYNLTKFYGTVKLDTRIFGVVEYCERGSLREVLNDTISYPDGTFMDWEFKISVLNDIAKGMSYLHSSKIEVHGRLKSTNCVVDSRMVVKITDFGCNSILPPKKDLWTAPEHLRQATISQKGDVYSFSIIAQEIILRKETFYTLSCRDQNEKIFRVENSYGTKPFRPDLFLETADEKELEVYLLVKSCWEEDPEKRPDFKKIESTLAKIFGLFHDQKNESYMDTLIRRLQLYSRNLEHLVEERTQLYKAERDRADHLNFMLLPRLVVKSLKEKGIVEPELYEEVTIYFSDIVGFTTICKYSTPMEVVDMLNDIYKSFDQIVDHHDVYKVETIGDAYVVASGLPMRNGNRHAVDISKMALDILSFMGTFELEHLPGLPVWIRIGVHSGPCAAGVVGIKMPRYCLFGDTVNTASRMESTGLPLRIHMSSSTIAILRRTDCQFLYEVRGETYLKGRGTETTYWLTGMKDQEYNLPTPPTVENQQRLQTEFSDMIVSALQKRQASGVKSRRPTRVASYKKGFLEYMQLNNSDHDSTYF
Description: Binding of Cy3/Cy5.5 probes to cell membranes from rat intestinal tissues. From the text:
(§1) SP-333 was labeled with an appropriate infrared (IR) fluorescence dye for in vivo imaging purposes. The peptide was to be labeled with an appropriate IR dye through the reaction of a N-hydroxysuccinamidyl (NHS) activated ester with the amine group of the peptide. Our initial test with the VivoTag680 NHS ester supplied by PerkinElmer, Inc was not successful. […] Labeling SP-333 with Cy3 and the subsequent HPLC purification was successful, with an overall labeling efficiency of 30% achieved. […] Both Cy3 and Cy5.5 belong to a family of cyanine fluorescence dyes used in bioimaging applications. […] We performed similar binding experiments with the cell membranes isolated from T84 cells and from rat intestinal tissues. […] Thus, SP-333-IR680 fluorescence was custom synthesized.

In assay [2] the target is T2, cell membranes isolated from T84 cells (Homo sapiens, UniProt P25092).
T2 construct: endogenous in cells; host or cells: T84 cells, intact or as isolated cell membranes
Briefly: Binding of Cy3/Cy5.5 probes to cell membranes isolated from T84 cells.
From the text: as §1

For assay [3], the target named is T3, GC-C receptors expressed on the surface of T84 cells (Homo sapiens, UniProt P25092).
T3 construct: endogenous in cells; host or cells: T84 cells, intact or as isolated cell membranes
Briefly: Binding of Cy3/Cy5.5 probes to T84 cells.
From the text: as §1

For assay [4], the system named is rat intestinal fragments. Briefly: Ex vivo binding of Cy3/Cy5.5 probes with rat intestinal fragments.
From the text: as §1

Assay [5] has as its target GC-C receptor (Homo sapiens, UniProt P25092). Briefly: Binding of dye-conjugated SP-333 to GC-C receptors (method not specified).
From the text: as §1

For assay [6], the target named is T4, GC-C receptor in rat intestinal tissues (rat, UniProt P23897 23-1072).
T4 construct: whole, on cells; the protein target is inferred from the preceding sentence on GC-C receptors; also called cell membranes from rat intestinal tissues; rat intestinal fragments
T4 sequence (looked up): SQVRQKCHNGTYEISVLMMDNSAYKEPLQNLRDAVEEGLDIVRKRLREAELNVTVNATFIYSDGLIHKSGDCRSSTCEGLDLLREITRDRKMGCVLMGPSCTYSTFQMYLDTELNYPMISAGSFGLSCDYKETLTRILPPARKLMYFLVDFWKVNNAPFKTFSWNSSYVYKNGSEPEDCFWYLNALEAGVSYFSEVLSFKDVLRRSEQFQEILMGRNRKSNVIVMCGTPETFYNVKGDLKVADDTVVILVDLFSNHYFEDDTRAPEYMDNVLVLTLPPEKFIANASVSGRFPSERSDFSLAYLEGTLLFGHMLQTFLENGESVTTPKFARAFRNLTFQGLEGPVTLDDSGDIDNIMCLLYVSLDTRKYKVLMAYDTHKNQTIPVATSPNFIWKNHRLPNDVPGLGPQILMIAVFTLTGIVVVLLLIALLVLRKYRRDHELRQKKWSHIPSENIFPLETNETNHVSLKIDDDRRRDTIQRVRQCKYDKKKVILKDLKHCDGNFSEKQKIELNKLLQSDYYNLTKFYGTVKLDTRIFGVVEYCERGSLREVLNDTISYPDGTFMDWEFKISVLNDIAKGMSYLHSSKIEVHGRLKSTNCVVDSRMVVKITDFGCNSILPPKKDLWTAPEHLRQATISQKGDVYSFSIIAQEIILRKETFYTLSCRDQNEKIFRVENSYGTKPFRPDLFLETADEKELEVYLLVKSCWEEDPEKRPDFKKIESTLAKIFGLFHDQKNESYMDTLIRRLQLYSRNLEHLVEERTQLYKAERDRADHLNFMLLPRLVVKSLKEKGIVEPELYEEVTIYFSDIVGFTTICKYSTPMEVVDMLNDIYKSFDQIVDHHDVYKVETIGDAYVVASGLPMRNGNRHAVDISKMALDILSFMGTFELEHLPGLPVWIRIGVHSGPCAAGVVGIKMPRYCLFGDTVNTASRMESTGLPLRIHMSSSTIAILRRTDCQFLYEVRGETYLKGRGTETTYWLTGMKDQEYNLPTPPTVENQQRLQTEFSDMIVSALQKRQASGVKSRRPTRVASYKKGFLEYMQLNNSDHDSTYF
Briefly: binding to cell membranes from rat intestinal tissues; ex vivo binding with rat intestinal fragments.

Assay [7] concerns the target T5, Guanylate cyclase C (GC-C) receptor expressed on human T84 cells (human, UniProt P25092 24-1073).
T5 construct: whole, on cells; also called GC-C receptors
Briefly: competition of unlabeled SP-333 against IR680-SP-333 probe binding on T84 cells.

One may read the IC50 as the midpoint of a concentration-inhibition curve. A low value points to inhibition by little substance.

Positions of bridges follow the written chain, without caps; N, C: chain ends. Non-standard residues stand in square brackets, D forms with d. No end group written: not given here. Cy5.5 = cyanine dye Cy5.5, conjugated via NHS ester; Cy3 = cyanine dye Cy3, conjugated via NHS ester

GC-C receptor, sequence (P25092 24-1073): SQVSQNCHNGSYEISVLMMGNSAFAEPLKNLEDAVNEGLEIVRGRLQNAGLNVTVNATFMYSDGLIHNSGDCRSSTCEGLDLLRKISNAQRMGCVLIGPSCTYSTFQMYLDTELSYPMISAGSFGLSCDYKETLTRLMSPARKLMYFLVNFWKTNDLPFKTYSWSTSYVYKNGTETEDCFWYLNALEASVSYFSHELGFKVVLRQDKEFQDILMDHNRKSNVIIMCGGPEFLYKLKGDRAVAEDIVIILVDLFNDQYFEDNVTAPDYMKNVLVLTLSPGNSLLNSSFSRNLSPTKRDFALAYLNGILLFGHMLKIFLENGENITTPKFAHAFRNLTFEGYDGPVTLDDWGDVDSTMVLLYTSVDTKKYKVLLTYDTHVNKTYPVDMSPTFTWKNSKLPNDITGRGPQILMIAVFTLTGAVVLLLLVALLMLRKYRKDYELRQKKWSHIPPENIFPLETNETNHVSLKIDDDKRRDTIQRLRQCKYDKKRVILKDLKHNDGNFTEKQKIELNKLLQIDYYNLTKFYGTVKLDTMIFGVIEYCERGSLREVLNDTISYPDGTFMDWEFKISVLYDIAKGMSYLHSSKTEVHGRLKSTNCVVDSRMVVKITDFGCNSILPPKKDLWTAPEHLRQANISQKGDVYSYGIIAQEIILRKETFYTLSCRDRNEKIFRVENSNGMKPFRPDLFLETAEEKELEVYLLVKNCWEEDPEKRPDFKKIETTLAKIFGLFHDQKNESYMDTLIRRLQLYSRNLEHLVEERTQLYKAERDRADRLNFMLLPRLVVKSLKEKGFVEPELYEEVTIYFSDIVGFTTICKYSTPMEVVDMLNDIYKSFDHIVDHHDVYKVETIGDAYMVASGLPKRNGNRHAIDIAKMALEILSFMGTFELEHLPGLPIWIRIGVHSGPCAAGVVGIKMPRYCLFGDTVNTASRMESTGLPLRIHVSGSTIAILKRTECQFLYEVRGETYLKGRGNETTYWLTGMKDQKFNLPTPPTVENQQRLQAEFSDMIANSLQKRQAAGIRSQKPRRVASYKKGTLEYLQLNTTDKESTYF
T3 sequence (P25092 24-1073): as above
T2 sequence (P25092 24-1073): as above
T5 sequence (P25092 24-1073): as above

On to “Cy3-SP-333: SP-333 conjugated with cyanine fluorescence dye Cy3-NHS ester (Cy3-[dN]DECELCVNVACTGC[dL]; disulfide 4-12, 7-15)”, for which the “specific binding to cell membranes isolated from rat intestinal tissues” value in assay [1] is reported as “did not show any specific binding”. The “specific binding to cell membranes isolated from T84 cells” value in assay [2] is reported as “did not show any specific binding”. Moreover, in assay [3], the “specific binding to GC-C receptors on the surface of T84 cells” value is reported as “failed to exhibit specific binding”. The “specific binding in ex vivo binding with rat intestinal fragments” value in assay [4] is recorded as “lack of specific binding”. In addition, the “binding to GC-C receptors after conjugation of dye to the N-terminal of SP-333” value in assay [5] was “without appreciable loss”.

Take “Cy5.5-SP-333: SP-333 conjugated with cyanine fluorescence dye Cy5.5 NHS ester ({Cy5.5}-[dN]DECELCVNVACTGC[dL]; disulfide 4-12, 7-15)”: the “specific binding to cell membranes isolated from rat intestinal tissues” value in assay [1] is “did not show any specific binding”. For the same molecule, the “specific binding to cell membranes isolated from T84 cells” value in assay [2] is “did not show any specific binding”. Further, the “specific binding to GC-C receptors on the surface of T84 cells” value in assay [3] was “failed to exhibit specific binding”. Moreover, the “specific binding in ex vivo binding with rat intestinal fragments” value in assay [4] is “lack of specific binding”. Moreover, the “binding to GC-C receptors after conjugation of dye to the N-terminal of SP-333” value in assay [5] is “without appreciable loss”.

B1: Cy5.5-SP-333 (peptide)
peptide: {Cy5.5}-[dN]DECELCVNVACTGC[dL]
modifications: disulfide 4-12, 7-15
As for B1, the binding result in assay [6] is “no binding”.

B2: SP-333 (dolcanatide), unlabeled (peptide)
peptide: [dN]DECELCVNVACTGC[dL]
modifications: disulfide 4-12, 7-15
notes: Synthetic analog of uroguanylin; also called Api 1251
For B2, the IC50 in assay [7] is ~1600 nM.

B3: Cy3-SP-333 (peptide)
peptide: Cy3-[dN]DECELCVNVACTGC[dL]
modifications: disulfide 4-12, 7-15
B3: the binding result in assay [6] is recorded as “no binding”.
